# According to patent publication US20060110777A1 (Genentech, published 2006):
# Where “and” joins values, the source holds several entries; their conditions need not be identical. Equal values may be shown once. Positions of bridges follow the written chain, without caps; N, C: chain ends. No end group written: not given here.
# B1: bhpBR3 (peptide)
# peptide: CHWDLLVRHWVC-NH2
# modifications: disulfide 1-12 (inferred)
# notes: BR3 residues 26-31 (DLLVRH) embedded in the disulfide-bonded beta-hairpin (bhp) scaffold; also called the 12-residue peptide; turn peptide bhpBR3
# B2: miniBR3 (peptide)
# peptide: TPCVPAECFDLLVRHCVACGLLRTPR-NH2
# modifications: disulfide 3-16, 8-19
# notes: Synthetic peptide with the 1:3, 2:4 disulfide-bonding pattern; also called 26-residue miniBR3 peptide; the larger core domain
# Target: T1, BAFF (UniProt Q9Y275 134-285, limits assumed)
# T1 construct: Coated on ELISA plates at 2 ug/ml; The construct is not described; also called BLyS; TALL-1
# Assay: competitive displacement ELISA, BAFF coated, biotinylated miniBR3 as tracer
# Procedure: FIGS. 16A-16B depict binding of BR3 variants to BAFF. (A) Competitive displacement of biotinylated miniBR3 measured by ELISA (see methods). Data are shown for BR3 extracellular domain (filled triangles), miniBR3 (open squares), and bhpBR3 (filled circles). IC₅₀ values from the fitted curves are 70 nM, 65 nM, and 15 μM, respectively. (B) HeLa cells expressing a chimeric receptor composed of the extracellular ligand-binding domain of BR3 fused to the death domain of DR4 were seeded 16 hr before treatment. BAFF (2 nM) was added to cells alone or after being preincubated with miniBR3 (3 μM), bhpBR3 (100 μM) or a control hairpin peptide with an unrelated turn sequence in the same bhp scaffold (bhpC, 100 μM) for 30 min at room temperature. Apoptosis was assessed 24 hr later. […]
# Nunc Maxisorp 96-well plates were coated overnight at 4° C. with 100 μl of a 2 μg/ml solution of BAFF in carbonate buffer, pH 9.6. […] The reaction was quenched with 100 μl/well 1M H₃PO₄ and the plate read at 490 nm. IC₅₀ values were determined by a four-parameter fit of the competitive displacement ELISA signal. The concentrations of initial stock solutions of bhpBR3 were determined spectrophotometrically as described (Gill and von Hippel, (1989) Anal. Biochem. 182:319-326), while those of miniBR3 and BR3 extracellular domain were determined by quantitative amino acid analysis.
row,IC50,Binder
1,15000 nM,B1
2,65 nM and ~70 nM,B2
